Values quoted from earlier work as cited in article PMC7531836.

Target: C5 (Homo sapiens) (UniProt P01031)

Kd: 120 pM
Substance: eculizumab
